Results reported in patent US20110014211A1 (INSTITUTE FOR ANTIBODIES, published 2011).

Assays:
[1] = molecular target: neuronal cell binding domain of the heavy chain C-terminal end (Hc, E. coli recombinant protein) (Clostridium botulinum, UniProt P0DPI0 871-1296); assay: immunoblotting of Hc after SDS-PAGE (denatured antigen)
[2] = molecular target: Neurotoxin heavy chain (H-chain) (Clostridium botulinum, UniProt P0DPI0 449-1296); assay: ELISA, IgG on immobilised H-chain
[3] = molecular target: Neurotoxin light chain (L-chain) (Clostridium botulinum, UniProt P0DPI0 2-448); assay: ELISA, IgG on immobilised L-chain

Binder	binding result [1]	binding result [2]	binding result [3]
BT-175 IgG type antibody (antibody, V domains shown) VH: QITLKESGPTLVKPTQTLTLTCTFSGFSLRTSGVGVGWIRQPPGKAPEWLALIYWDGDKRFSPSLKSRLTINKDISKNQVVLTLTNLDPVDTGTYYCAHSFYHGSQSPGWFDPWGQGTLVTVSS VL: QSVLTQPPSVSAAPGQKVTISCSGSSSNIGNNYVSWYQQLPGTAPKLLIYDNNKRPSGIPDRFSGSKSGTSATLGITGLQTGDEADYYCGTWDSSLSAVFGGGTKLTVLG	no binding (tested: 50 µg/ml)	no binding (tested: 1 µg/ml)	–
NT-221 IgG type antibody (antibody, V domains shown) VH: EVQLVESGPTLVKPTQTLTLTCTFSGFSLRTSGVAVGWIRQPPGKALEWLALIYWDDDKRYSPSLKSRLTITKDTSKNQVVLTMTNMDPVDTATYYCAHNTGTDLYFDWAFDYWGQGTLVTVSS VL: QSVLTQPPSVSGAPGQRVTISCTGSSSNIGAGYDVHWYQQLPGTAPKLLIYGNSNRPSGVPDRFSGSKSGTSASLAITGLQAEDEADYYCQSYDSSLSGSVFGGGTKLTVLG	no binding (tested: 50 µg/ml)	no binding (tested: 1 µg/ml)	no binding (tested: 1 µg/ml)
NT-539 IgG type antibody (antibody, V domains shown) VH: not shown VL: DIQMTQSPSAVSASLGDRVTITCRASQGINPFLAWFQQKPGKVPERLIYTASRLQSGVPSRFSGSGTGTEFNLTISSLHPEDFATYYCLQHKHYPWTFGQGTKVERK	no binding (tested: 50 µg/ml)	–	no binding (tested: 10 µg/ml)
NT-320 IgG type antibody (antibody, V domains shown) VH: EVQLVESGGGVVQPGKSLRLSCAASGFTFSSYGMHWVRQAPGKGLEWVAVISYPGTNEYYTDSVKGRFTISRDNSKNTLYLQMNSLRAEDTAVYYCARGDIHSGYSFGGGDYGLDVWGQGTTVTVSS VL: DIQMTQSPSTLSASVGDRVTITCRASQSISGWLAWYQQKPGKAPKLLMYKASSLESGVPSRFSGSGSGTEFTLTISSLQPDDFATYYCQQYNNFPWTFGQGTKVEFK	no binding (tested: 50 µg/ml)	–	–
BT-015 IgG type antibody (antibody, V domains shown) VH: QVQLQQSGAEVKKPGASVKVACKASRYNFSAYYMHWVRQAPGQGPEWMGWINPHSGVTTYAQKFQGRVTMTRDTSIGTAYMELSRLRSDDTALYYCARGFGSSCSDTSCSFSGLDVWGQGTTVTVSS VL: QSALTQPASVSGSPGQSITISCTGTSSDVGGYDYVSWYQQHPGEAPKLLIYDVTNRPSGVSSRFSGSKSGNTASLTISGLQPEDEADYYCTSYTSSVTYVFGSGTTLTVLS	no binding (tested: 50 µg/ml)	–	no binding (tested: 1 µg/ml)
